{"source": "paper PMC3335792", "binders": {"B1": {"name": "E. coli NAD+-dependent DNA ligase (E. coli LigA), P15042 1-671 (enzyme)", "chain": "MESIEQQLTELRTTLRHHEYLYHVMDAPEIPDAEYDRLMRELRELETKHPELITPDSPTQRVGAAPLAAFSQIRHEVPMLSLDNVFDEESFLAFNKRVQDRLKNNEKVTWCCELKLDGLAVSILYENGVLVSAATRGDGTTGEDITSNVRTIRAIPLKLHGENIPARLEVRGEVFLPQAGFEKINEDARRTGGKVFANPRNAAAGSLRQLDPRITAKRPLTFFCYGVGVLEGGELPDTHLGRLLQFKKWGLPVSDRVTLCESAEEVLAFYHKVEEDRPTLGFDIDGVVIKVNSLAQQEQLGFVARAPRWAVAFKFPAQEQMTFVRDVEFQVGRTGAITPVARLEPVHVAGVLVSNATLHNADEIERLGLRIGDKVVIRRAGDVIPQVVNVVLSERPEDTREVVFPTHCPVCGSDVERVEGEAVARCTGGLICGAQRKESLKHFVSRRAMDVDGMGDKIIDQLVEKEYVHTPADLFKLTAGKLTGLERMGPKSAQNVVNALEKAKETTFARFLYALGIREVGEATAAGLAAYFGTLEALEAASIEELQKVPDVGIVVASHVHNFFAEESNRNVISELLAEGVHWPAPIVINAEEIDSPFAGKTVVLTGSLSQMSRDDAKARLVELGAKVAGSVSKKTDLVIAGEAAGSKLAKAQELGIEVIDEAEMLRLLGS", "modifications": "here or on the partner: OregonGreen488 label (residue not stated)"}}, "target": "E. coli β-clamp labeled with OregonGreen488 (E. coli β-clamp^OG) (E. coli), P0A988", "sequence (P0A988 whole entry)": "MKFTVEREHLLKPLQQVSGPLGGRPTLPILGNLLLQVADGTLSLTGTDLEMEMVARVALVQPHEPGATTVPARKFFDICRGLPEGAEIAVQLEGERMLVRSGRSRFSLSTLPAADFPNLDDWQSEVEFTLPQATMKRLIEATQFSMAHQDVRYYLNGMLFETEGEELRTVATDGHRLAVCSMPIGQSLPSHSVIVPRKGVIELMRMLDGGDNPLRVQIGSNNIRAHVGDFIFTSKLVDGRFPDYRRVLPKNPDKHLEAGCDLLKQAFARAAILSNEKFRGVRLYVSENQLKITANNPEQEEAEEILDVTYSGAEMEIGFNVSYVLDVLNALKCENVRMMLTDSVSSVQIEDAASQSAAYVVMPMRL", "assay": "other fluorescence titration; OregonGreen488-labeled β-clamp (50 or 100 nM in the methods, 90 nM in the legend) titrated with the partner protein; 20 mM Tris-Cl pH 7.5, 8 mM MgCl2, 1 mM DTT, 0.2 mM EDTA, 50 mM NaCl, 0.5 mM ATP, 22°C; emission at 510 nm; apparent Kd", "conditions": "remark: other sources report otherwise", "data": [{"binder": "B1", "values": [{"measurement": "Kd", "value": 42.5, "unit": "nM"}]}]}
